Columns and labels:
[1] = target: Rap2a (Resistance associated protein 2a), without its N-terminal signal peptide, His6-tagged (Serratia marcescens Db10); test: SEC
[2] = target: Tse1 (Pseudomonas aeruginosa) (UniProt Q9I2Q1); details: cited from earlier work
[3] = target: Rap2b (Resistance associated protein 2b), without its N-terminal signal peptide, His6-tagged (Serratia marcescens Db10); test: SEC
[4] = target: Rap1a (Resistance associated protein 1a), without its N-terminal signal peptide, His6-tagged (Serratia marcescens Db10); test: SEC + other: quantitative in-gel SYPRO Orange staining
[5] = target: Rap1a (Resistance associated protein 1a), without its N-terminal signal peptide, His6-tagged (Serratia marcescens Db10); test: SEC
SEC = target: the molecule itself; test: SEC

Rap2a (Resistance associated protein 2a), without its N-terminal signal peptide, His6-tagged (natural protein)
stoichiometry N [1]: 2

Tsi1 (from UniProt Q9I2Q0)
Kd [2]: 3 nM

Rap2b (Resistance associated protein 2b), without its N-terminal signal peptide, His6-tagged (natural protein)
stoichiometry N [3]: 2

Ssp1 (Secreted small protein 1), His6-tagged recombinant (natural protein)
stoichiometry N (Ssp1 per Rap1a (molar)) [4]: 1

Rap1a (Resistance associated protein 1a), without its N-terminal signal peptide, His6-tagged (natural protein)
stoichiometry N [5]: 2

B1: Rap1b (Resistance associated protein 1b), without its N-terminal signal peptide, His6-tagged (natural protein)
chain: APIQDPVAFIKQMPYHQVVKELALSRCLAQVSDSDKAFSLDAARTANAMREWMPFDIESGDEKINVLIDKYKSRINEFHSETKDKSQGVTLNCLRLYHSPELDKLSRQLIAGNPDRTWNQDNAK
modifications: disulphide bond Cys54-Cys120
stoichiometry N (SEC): 2
